Data taken from publication PMC6026317, “Molecular elements in FGF19 and FGF21 defining KLB/FGFR activity and specificity” (Molecular Metabolism, 2018).
Substitutions are numbered along the chain they refer to. Names and notes keep the numbering of the source. “Also recorded” adds a separate entry of the source.

B1: FGF21-19A: Hybrid protein: FGF21 1–156 fused with FGF19 169–194 (K194A) (protein)
chain: HPIPDSSPLLQFGGQVRQRYLYTDDAQQTEAHLEIREDGTVGGAADQSPESLLQLKALKPGVIQILGVKTSRFLCQRPDGALYGSLHFDPEACSFRELLLEDGYNVYQSEAHGLPLHLPGNKSPHRDPAPRGPARFLPLPGLPPALPEPPGILAPQPLETDSMDPFGLVTGLEAVRSPSFEA
modifications: left off: SUMO (yeast), end not stated, cleaved | His6, end not stated, state not stated
B2: FGF23: FGF23 (#Q9GZV9: 25–251) (protein, UniProt Q9GZV9 25-251, looked up)
Fibroblast growth factor 23: YPNASPLLGSSWGGLIHLYTATARNSYHLQIHKNGHVDGAPHQTIYSALMIRSEDAGFVVITGVMSRRYLCMDFRGNIFGSHYFDPENCRFQHQTLENGYDVYHSPQYHFLVSLGRAKRAFLPGMNPPPYSQFLSRRNEIPLIHFNTPIPRRHTRSAEDDSERDPLNVLKPRARMTPAPASCSQELPSAEDNSPMASDPLGVVRGGRVNTHAGGTGPEGCRPFAKFI
B3: FGF21,A^164: Native FGF21 with D164A substitution (protein, UniProt Q9NSA1 29-209, looked up, variant D164A)
Fibroblast growth factor 21: HPIPDSSPLLQFGGQVRQRYLYTDDAQQTEAHLEIREDGTVGGAADQSPESLLQLKALKPGVIQILGVKTSRFLCQRPDGALYGSLHFDPEACSFRELLLEDGYNVYQSEAHGLPLHLPGNKSPHRDPAPRGPARFLPLPGLPPALPEPPGILAPQPPDVGSSAPLSMVGPSQGRSPSYAS
B4: FGF21: Human FGF21 (UniProtKB #Q9NSA1 29–209, designated 1–181) (protein)
chain: B3 Fibroblast growth factor 21 with A164D
modifications: left off: SUMO (yeast), end not stated, cleaved | His6, end not stated, state not stated

Columns and labels:
[1] = tested on: 293/KLB cells; assay: Agonist pERK AlphaLISA assay in 293/KLB cells; format: cell-based, human; conditions: 10 min at 37° C, n = 3
Method: (§1) 293T HEK cells expressing KLB (or KL) or Hep3B cells were plated to 5–6 x 10^4 cells/well density in 96-well cell culture plate coated with poly-D-Lysine (Corning). The cells were serum starved for four hours in 0.1% BSA fraction V (ThermoFisher) containing media prior to treatment with protein and/or an antagonist peptide at the mentioned concentrations for 10 min at 37° C. For the antagonist assays, a chosen fixed dose within the range of 0.8–30 nM (depending on the cell type) of FGF21 or FGF19 stimulant was added to all the wells. BaF3 cells expressing human KLB/FGFR1c or human KLB/FGFR4-1c chimera were seeded at 5 × 10^5 cells/well density in 96-well cell culture plate and serum-starved overnight. FGF21/19 analogs were diluted in 0.02% Tween-20 containing RPMI1640 medium and the cells were treated for 15 min at 37° C. Following the respective cell treatments, the cells were lysed (with lysis buffer provided in the kit) for 10 min at room temperature on a shaker and the lysate was mixed with reaction mixture (consisting of reaction buffer, activation buffer, acceptor and donor beads provided in the kit). Phosphorylated ERK1/2 (pERK) levels were subsequently recorded by EnSpire Alpha or Envision Multilabel plate reader (Perkin Elmer). The cell assays corresponding to 293/KLB or Hep3B cells were carried out with AlphaLISA SureFire Ultra pERK1/2 (Thr 202/Tyr204) kit (Perkin Elmer), and BaF3 cells were done using AlphaScreen pERK1/2 (Thr202/Tyr204) kit (Perkin Elmer).
All cellular phosphorylation data were analyzed using 3-parameter non-linear regression curve in GraphPad Prism 7. Graphs are represented as relative maximal (100%) response of the positive control. All other test analog signals were adjusted accordingly as % values. […] Each peptide and protein analog was tested in triplicates in three independent experiments (n = 3), and normalized graphs plotted are expressed as mean ± SD unless otherwise noted.

[2] = tested on: Hep3B cells; assay: Agonist pERK AlphaLISA assay in Hep3B cells; format: cell-based, human; conditions: 10 min at 37° C, n = 3
Method: as §1, with “Following the respective cell treatments, the cells were lysed (with lysis buffer provided in the kit) for 10 min at room temperature on a shaker and the lysate was mixed with reaction mixture (consisting of reaction buffer, activation buffer, acceptor and donor beads provided in the kit).” left out, “The cell assays corresponding to 293/KLB or Hep3B cells were carried out with AlphaLISA SureFire Ultra pERK1/2 (Thr 202/Tyr204) kit (Perkin Elmer), and BaF3 cells were done using AlphaScreen pERK1/2 (Thr202/Tyr204) kit (Perkin Elmer).” left out
(§2) All cellular phosphorylation data were analyzed using 3-parameter non-linear regression curve in GraphPad Prism 7. […] Each peptide and protein analog was tested in triplicates in three independent experiments (n = 3), and normalized graphs plotted are expressed as mean ± SD unless otherwise noted.

[3] = tested on: diet-induced obese (DIO) mice; assay: In vivo FGF21 agonism study in DIO mice; parameters: species or system mouse; conditions: for Body weight change: daily sc 0.1, 0.3 or 1 mg/kg for 7 days, n = 8
Excerpt: (§3) All animal studies were approved by and performed according to the guidelines of the Institutional Animal Care and Use Committee of the University of Cincinnati (Cincinnati, USA). Eight-week old male C57BL/6J mice (Jackson Laboratories) were given ad libitum access to either a chow diet (lean mice), or a high-fat high-sugar diet (HFD, DIO mice) containing 58% kcal from fat (Research Diets, catalog# D12331). For DIO mice, animals were maintained on the HFD for a minimum of 3 months prior to initiation of the pharmacological studies. The mice were maintained at 22 °C on a 12-h light–dark cycle with free access to water. Before the beginning of the studies, mice were randomized into treatment groups according to body weight. All injections and tests were performed during the light cycle with a group size of n = 8.
Mice were administered vehicle, FGF21 or FGF21-19A (0.1, 0.3 and 1 mg/kg) daily via sc injections and their body weight measurements were made on alternative days. At the end of 7 day treatment, blood was collected from tail veins using EDTA-coated microvette tubes (Sarstedt), immediately placed on ice, centrifuged at 5000 × g and 4 °C for 10 min, and plasma was stored at −80 °C until analyzed. Triglycerides and cholesterol levels were analyzed using colorimetric assay (Thermo Fisher).
Statistical analyses for in vivo experiments were performed on data using a one- (Figure 5A,B and 5D) or two-way (Figure 5C) ANOVA followed by Tukey post hoc multiple comparison analysis. All results are presented as mean ± SEM, n = 5–8, and P < 0.05 was considered significant. Group size estimations were based upon a power calculation to minimally yield an 80% chance to detect a significant difference in body weight of P < 0.05.

[4] = tested on: 293/KL cells; assay: Agonist pERK assay in 293/KL cells; format: cell-based, human; conditions: n = 3
Method: as §1, with “Following the respective cell treatments, the cells were lysed (with lysis buffer provided in the kit) for 10 min at room temperature on a shaker and the lysate was mixed with reaction mixture (consisting of reaction buffer, activation buffer, acceptor and donor beads provided in the kit).” left out, “The cell assays corresponding to 293/KLB or Hep3B cells were carried out with AlphaLISA SureFire Ultra pERK1/2 (Thr 202/Tyr204) kit (Perkin Elmer), and BaF3 cells were done using AlphaScreen pERK1/2 (Thr202/Tyr204) kit (Perkin Elmer).” left out
as §2

[5] = tested on: human FGFR1/KLB; assay: Agonist pERK AlphaScreen assay in BaF3 cells, FGFR1/KLB; format: cell-based; conditions: BaF3 cells co-expressing KLB and FGFR1; 15 min at 37° C; n = 3
Excerpt: (§4) For generating receptor specific BaF3 cell line, human FGFR1c cDNA was cloned into pMXs-IRES-Puro vector (Cell Biolabs) to generate the expression plasmid pMX-FGFR1c-IRES-Puro. Human FGFR4 sequence was re-engineered to enhance signaling by constructing chimeric cDNA encoding the extracellular region of FGFR4 fused to the intracellular region and tyrosine kinase domain of FGFR1c, and the chimeric sequence was cloned into pMX-IRES-Puro vector to generate the expression plasmid pMX-chimeric FGFR4-1c-IRES-Puro. Human KLB cDNA was cloned into pMXs-IRES-Neo vector (Cell Biolabs) to generate expression plasmid pMX-KLB-IRES-Neo. BaF3 cells were transfected with pMX-FGFR1c-IRES-Puro and pMX- FGFR4-1c chimera-IRES-Puro expression plasmids respectively by electroporation (Xcell machine, Bio-Rad, 950 μF, 370V). Cells were selected with media containing 1 μg/ml Puromycin for 10–12 days. […]
(§5) 293T HEK cells expressing KLB (or KL) or Hep3B cells were plated to 5–6 x 10^4 cells/well density in 96-well cell culture plate coated with poly-D-Lysine (Corning). […] Phosphorylated ERK1/2 (pERK) levels were subsequently recorded by EnSpire Alpha or Envision Multilabel plate reader (Perkin Elmer). […]
(§6) All cellular phosphorylation data were analyzed using 3-parameter non-linear regression curve in GraphPad Prism 7. […]

[6] = tested on: human FGFR4-1c chimera/KLB; assay: Agonist pERK AlphaScreen assay in BaF3 cells, FGFR4-1c chimera/KLB; format: cell-based; conditions: BaF3 cells co-expressing KLB and FGFR4-1c chimera; 15 min at 37° C; n = 3
Excerpt: as §4, §5, §6

[7] = tested on: lean (C57BL/6J) mice; assay: In vivo peptide antagonism study, cFos and EGR1 mRNA in pancreas and eWAT; parameters: species or system mouse; conditions: 1 mg/kg sc, one hour, WAT and pancreas
Excerpt: as §3
Mice were administered vehicle, FGF21 (1 mg/kg), or FGF19 (1 mg/kg) alone or in combination with 19C26,A^26 (30 mg/kg), (dosed 15 min prior to FGF21 or FGF19 administration) via sc injections. One-hour post FGF21 or FGF19 dosing, the mice were sacrificed and their plasma, pancreas, and epididymal white adipose tissue (eWAT) were harvested for analyses. […] Following reverse transcription, levels of cFos and early growth response-1 (EGR1) mRNA levels were subsequently probed by quantitative PCR (ThermoFisher) and analyzed by ΔΔCT method. […]

[8] = daily sc 0.1, 0.3 or 1 mg/kg, day 7

| Molecule | pERK agonist activity, in words [1] | pERK agonist activity, in words [2] | Body weight change [3] | Circulating insulin [3, 8] | Fasted plasma glucose, difference to native FGF21 [3, 8] | Plasma cholesterol ([3]; daily sc 0.1, 0.3 or 1 mg/kg, end of 7 day treatment) | pERK agonist activity, in words [4] | pERK agonist activity, in words [5] | pERK agonist activity, in words [6] | cFos and EGR1 transcriptional activity, FGF alone [7] |
| --- | --- | --- | --- | --- | --- | --- | --- | --- | --- | --- |
| B1 | significantly more potent when compared to native FGF21; also recorded: ten-fold-enhanced in vitro potency | significantly more potent when compared to native FGF21; also recorded: ten-fold-enhanced in vitro potency | dramatically more potent at each corresponding dose | potently reduced circulating insulin when compared to vehicle treatment | statistically different only at the 0.3 mg/kg dose | plasma cholesterol was lowered | – | – | – | – |
| B2 | – | – | – | – | – | – | significantly more potent than FGF21 | – | – | – |
| B3 | only negligible activity | – | – | – | – | – | – | – | – | – |
| B4 | nanomolar potencies | – | induced weight loss in a dose-dependent manner | potently reduced circulating insulin when compared to vehicle treatment | – | – | – | active | minimal signaling | induced robust transcriptional activity in each tissue |
